In patent US20180185504A1 (Regeneron, published 2018):

Tests used:
[1] = biological target: T1, mouse PRLR construct with an HA tag on HEK293/mPRLR cells (mouse, UniProt Q08501 20-608); assay: FACS on HEK293/mPRLR cells
T1 construct: whole, on cells; stably transfected into HEK293
T1 sequence (looked up): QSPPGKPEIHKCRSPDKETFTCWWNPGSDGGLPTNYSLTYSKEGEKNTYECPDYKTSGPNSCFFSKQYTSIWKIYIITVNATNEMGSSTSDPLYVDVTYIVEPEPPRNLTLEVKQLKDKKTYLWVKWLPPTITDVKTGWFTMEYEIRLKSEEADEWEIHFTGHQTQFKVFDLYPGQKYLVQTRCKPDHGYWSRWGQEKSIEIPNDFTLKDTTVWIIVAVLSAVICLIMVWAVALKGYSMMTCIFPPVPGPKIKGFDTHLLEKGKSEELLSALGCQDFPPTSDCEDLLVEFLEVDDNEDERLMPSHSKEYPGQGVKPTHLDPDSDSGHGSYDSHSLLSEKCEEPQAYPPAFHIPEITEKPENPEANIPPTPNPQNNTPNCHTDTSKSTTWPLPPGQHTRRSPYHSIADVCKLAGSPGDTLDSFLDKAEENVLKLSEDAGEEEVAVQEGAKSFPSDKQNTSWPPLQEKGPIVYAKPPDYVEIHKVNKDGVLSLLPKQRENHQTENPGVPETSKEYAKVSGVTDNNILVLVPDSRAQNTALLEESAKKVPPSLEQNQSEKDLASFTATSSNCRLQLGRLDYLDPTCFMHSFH

[2] = biological target: T2, human PRLR on cells (endogenous on T47D, T47D#11, MCF7); introduced in HEK293/hPRLR/STAT5-Luc, 293/hPRLR, … (human, UniProt P16471 25-622); assay: FACS on T47D cells
T2 construct: no tag is stated for these lines; also called prolactin receptor
T2 sequence: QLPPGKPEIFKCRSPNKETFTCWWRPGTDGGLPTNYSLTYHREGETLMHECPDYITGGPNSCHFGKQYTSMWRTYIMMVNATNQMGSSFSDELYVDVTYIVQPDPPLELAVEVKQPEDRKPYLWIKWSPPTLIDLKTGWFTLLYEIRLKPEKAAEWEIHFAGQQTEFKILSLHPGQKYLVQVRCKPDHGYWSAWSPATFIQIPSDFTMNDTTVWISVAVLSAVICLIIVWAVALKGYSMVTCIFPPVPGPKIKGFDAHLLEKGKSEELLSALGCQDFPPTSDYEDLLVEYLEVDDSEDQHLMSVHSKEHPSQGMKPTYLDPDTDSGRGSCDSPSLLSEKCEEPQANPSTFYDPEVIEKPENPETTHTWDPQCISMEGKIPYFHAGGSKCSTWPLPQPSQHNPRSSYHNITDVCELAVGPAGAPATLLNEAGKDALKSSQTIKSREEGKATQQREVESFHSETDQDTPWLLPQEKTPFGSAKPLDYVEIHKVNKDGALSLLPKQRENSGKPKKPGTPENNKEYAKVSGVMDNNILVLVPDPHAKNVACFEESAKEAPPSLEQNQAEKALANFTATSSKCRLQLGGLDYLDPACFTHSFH

[3] = biological target: T3, mfPRLR.mmh (soluble monomeric macaca fascicularis PRLR) (macaca fascicularis); assay: SPR (Biacore), antibody capture, 37 C
T3 construct: soluble monomeric PRLR protein; also called macaca fascicularis (mf) PRLR.mmh; monkey PRLR
T3 chain: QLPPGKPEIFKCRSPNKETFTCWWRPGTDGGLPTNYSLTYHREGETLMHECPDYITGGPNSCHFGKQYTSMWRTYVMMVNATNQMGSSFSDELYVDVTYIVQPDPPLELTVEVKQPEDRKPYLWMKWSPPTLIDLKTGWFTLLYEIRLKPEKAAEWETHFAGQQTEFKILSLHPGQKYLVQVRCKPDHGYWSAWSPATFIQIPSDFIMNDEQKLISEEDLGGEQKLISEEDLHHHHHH
Description: (§1) Measurements were conducted on a T200 Biacore instrument. Kinetic association (kₐ) and dissociation (kd) rate constants were determined by processing and fitting the data to a 1:1 binding model using Scrubber 2.0 curve fitting software.

[4] = biological target: T4, hPRLR.mFc (soluble dimeric human PRLR) (human); assay: SPR (Biacore), antibody capture, 37 C
T4 construct: dimeric PRLR construct
T4 chain: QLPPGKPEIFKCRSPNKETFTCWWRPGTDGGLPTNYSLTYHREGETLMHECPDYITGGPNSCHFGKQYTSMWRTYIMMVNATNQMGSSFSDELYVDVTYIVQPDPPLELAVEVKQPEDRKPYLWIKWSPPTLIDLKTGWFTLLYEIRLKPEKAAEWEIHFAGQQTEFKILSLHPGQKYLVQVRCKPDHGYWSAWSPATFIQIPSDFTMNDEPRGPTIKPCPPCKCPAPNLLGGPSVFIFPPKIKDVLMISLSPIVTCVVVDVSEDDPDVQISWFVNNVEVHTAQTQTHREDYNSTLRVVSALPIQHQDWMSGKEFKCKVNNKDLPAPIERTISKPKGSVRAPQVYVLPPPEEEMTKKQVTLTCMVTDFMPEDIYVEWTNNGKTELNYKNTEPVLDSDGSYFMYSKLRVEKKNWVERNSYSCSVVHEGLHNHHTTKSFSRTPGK
Description: as §1

[5] = biological target: T5, hPRLR.mmh (soluble monomeric human PRLR) (human); assay: SPR (Biacore), antibody capture, 37 C
T5 construct: soluble monomeric PRLR protein
T5 chain: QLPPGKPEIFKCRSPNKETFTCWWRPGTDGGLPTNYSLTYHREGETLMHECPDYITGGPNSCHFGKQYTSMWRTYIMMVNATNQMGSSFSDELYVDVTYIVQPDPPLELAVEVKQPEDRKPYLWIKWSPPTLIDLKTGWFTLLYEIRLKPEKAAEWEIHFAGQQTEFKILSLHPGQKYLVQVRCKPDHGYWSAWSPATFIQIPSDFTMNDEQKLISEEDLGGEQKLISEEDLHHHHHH
Description: as §1

B1: H1H6975N (antibody, human IgG1, V domains shown)
VH: EVHLVESGGGLVQPGGSLRLSCAASGFTFSSYEMNWVRQTPGKGLEWISHISSRSVIIYYADSVKGRFTISRDNAKNSLFLQMNSLRAEDTAVYFCAGITIFGIPEYWGQGTLVTVSS
VL: EIVLTQSPATLSLSPGERATLSCRASQSVSSYFAWYQQKPGQAPRLLIYDASSRATGIPTRFSGSGSGTDFTLTISSLEPEDFAVYYCQQRSSWPITFGQGTRLEIK
notes: also called H2M6975N
For B1, the “FACS Cell Binding (Fold Above Background)” value [1] was 1 fold, the “FACS Cell Binding (Fold Above Background)” value [2] was 46 fold and the Kd [3] was 2.27 nM. The “T 1/2” value [3] was 36.4 min, the koff [3] was 0.000317 s⁻¹ and the kon [3] was 140000 M⁻¹ s⁻¹. The Kd [4] was 0.184 nM, the “T 1/2” value [4] was 163 min and the koff [4] was 7.09e-05 s⁻¹. For the same binder, the kon [4] was 386000 M⁻¹ s⁻¹, the Kd [5] was 1.29 nM and the “T 1/2” value [5] was 42.3 min. The koff [5] was 0.000273 s⁻¹ and the kon [5] was 211000 M⁻¹ s⁻¹.

B2: H1H6800P (antibody, human IgG1, V domains shown)
VH: EVQLVESGGGLVQPGRSLRLSCAASGFTFDGYAMHWVRQGPGKGLEWVSGISWYSDTLGYADSVKGRFTISRDNAKNSLYLQMNSLRTEDTAFYYCAKISSSGWAFDYWGQGTLVTVSS
VL: EIVLTQSPGTLSLSPGERATLSCRASHSVSSAYLAWYQQKPGQTPRLLIYGTSSRATGIPDRFSGSGSGTDFTLTISRLEPEDFAVYYCQQYGSSPLFTFGPGTKVDIK
notes: human IgG1 Fc (H1H)
For B2, the “FACS Cell Binding (Fold Above Background)” value [1] was 1 fold, the “FACS Cell Binding (Fold Above Background)” value [2] was 41 fold and the Kd [3] was 2.48 nM. The “T 1/2” value [3] was 11 min, the koff [3] was 0.00109 s⁻¹ and the kon [3] was 439000 M⁻¹ s⁻¹. The Kd [4] was 0.229 nM, the “T 1/2” value [4] was 79 min and the koff [4] was 0.000147 s⁻¹. For the same binder, the kon [4] was 644000 M⁻¹ s⁻¹, the Kd [5] was 1.47 nM and the “T 1/2” value [5] was 10 min. It also gave a koff [5] of 0.00119 s⁻¹ and a kon [5] of 808000 M⁻¹ s⁻¹.

B3: H1H6803P (antibody, human IgG1, V domains shown)
VH: EVQLVESGGGVVRPGGSLRLSCAASGFKFDDYGMTWVRHVPGKGLEWVSGINWNGGRTGYTDSVKGRFTISRDNAKNSLYLQMNSLRAEDTALYHCAGARRDAFDIWGQGTMVTVSS
VL: DIQMTQSPSSLSASIGDRVTITCRASQNIIKYLNWYQQNAGKAPKLLIYTASSLQSGVPSRFSGSGSGTDFTLTISSLQPEDFATYYCQQSSSSPYTFGQGTKLEIK
notes: human IgG1 Fc (H1H)
For B3, the “FACS Cell Binding (Fold Above Background)” value [1] was 1 fold, the “FACS Cell Binding (Fold Above Background)” value [2] was 39 fold and the Kd [3] was 7.28 nM. For the same binder, the “T 1/2” value [3] was 18 min, the koff [3] was 0.000636 s⁻¹ and the kon [3] was 87300 M⁻¹ s⁻¹. The Kd [4] was 0.461 nM, the “T 1/2” value [4] was 186 min and the koff [4] was 6.2e-05 s⁻¹. For the same binder, the kon [4] was 134000 M⁻¹ s⁻¹, the Kd [5] was 2.83 nM and the “T 1/2” value [5] was 32 min. It also gave a koff [5] of 0.000364 s⁻¹ and a kon [5] of 129000 M⁻¹ s⁻¹.

B4: H1H6762P (antibody, human IgG1, V domains shown)
VH: QVQLVESGGGVVQPGRSLRLSCAASGFTFSHYGMVWVRQPPGKGLEWVALISFDGTTKYYADSVKGRFTISRDNSKNTLYLQMNSLRAEDTAVYFCVGAIAAAAFDLWGRGTLVTVSS
VL: EIVMTQSPATLSVSPGERATLSCRASQSVSSDLAWYQQKPGQAPRLLIYSASARATGIPARFTGSGSGTDFTLTISSLQSEDFAVYYCQQYNNWPMYTFGQGTKLEIK
notes: human IgG1 Fc (H1H)
B4 was tested, and the “FACS Cell Binding (Fold Above Background)” value [1] was 2 fold, the “FACS Cell Binding (Fold Above Background)” value [2] was 38 fold and the Kd [3] was 0.823 nM. For the same binder, the “T 1/2” value [3] was 21 min, the koff [3] was 0.000558 s⁻¹ and the kon [3] was 679000 M⁻¹ s⁻¹. For the same binder, the Kd [4] was 0.128 nM, the “T 1/2” value [4] was 112 min and the koff [4] was 0.000103 s⁻¹. The kon [4] was 801000 M⁻¹ s⁻¹, the Kd [5] was 0.48 nM and the “T 1/2” value [5] was 25 min. It also gave a koff [5] of 0.000455 s⁻¹ and a kon [5] of 948000 M⁻¹ s⁻¹.

B5: H1H6765P (antibody, human IgG1, V domains shown)
VH: EVQLVESGGGVVRPGGSLRLSCVGSGFSFDDHGMNWVRQGPGKGLEWVSGFNWNGGSTNYAESVKGRFTISRDNARNSLFLQMNSLRAEDTALYYCVRGRSGWFNDAFDVWGPGTMVTVSS
VL: EIVLTQSPGTLSLSPGERATLSCRASQTINSNYLAWYRQKPGQTPRLLIYGTSSRATGIPDRFSGSGSGTDFSLTISRLEPEDFAVFYCQQYAGLPTFGPGTKVDIK
notes: human IgG1 Fc (H1H)
For B5, the “FACS Cell Binding (Fold Above Background)” value [1] was 1 fold, the “FACS Cell Binding (Fold Above Background)” value [2] was 40 fold and the Kd [3] was 0.0504 nM. The “T 1/2” value [3] was 215 min, the koff [3] was 5.37e-05 s⁻¹ and the kon [3] was 1.06e+06 M⁻¹ s⁻¹. The Kd [4] was 0.128 nM, the “T 1/2” value [4] was 112 min and the koff [4] was 0.000103 s⁻¹. For the same binder, the kon [4] was 801000 M⁻¹ s⁻¹, the Kd [5] was 0.292 nM and the “T 1/2” value [5] was 32 min. The koff [5] was 0.000366 s⁻¹ and the kon [5] was 1.25e+06 M⁻¹ s⁻¹.

B6: H1H6793P (antibody, human IgG1, V domains shown)
VH: EVQLVESGGGLVQPGGSLRLSCAASGFSFSIYAMSWFRQAPGKGLEWVSAINGRGDGTHYADSVKGRFTISRDNSKTTLYLQMSSLRAEDTAVYYCAKPVMSTNGFDIWGQGTMVTVSS
VL: DIQMTQSPSTLSASVGDRVTITCRASQSISSWLAWYQLKPGKAPKLLIYKASNLESGVPSRFSGSGSGTEFTLTISSLQPDDFATYYCQQYNIYWTFGQGTKVEIK
notes: human IgG1 Fc (H1H)
In the case of B6, the “FACS Cell Binding (Fold Above Background)” value [1] is reported as 2 fold, the “FACS Cell Binding (Fold Above Background)” value [2] is reported as 43 fold and the Kd [3] is reported as 4.59 nM. The “T 1/2” value [3] was 11 min, the koff [3] was 0.00107 s⁻¹ and the kon [3] was 233000 M⁻¹ s⁻¹. For the same binder, the Kd [4] was 0.347 nM, the “T 1/2” value [4] was 81 min and the koff [4] was 0.000142 s⁻¹. The kon [4] was 410000 M⁻¹ s⁻¹, the Kd [5] was 3.02 nM and the “T 1/2” value [5] was 11 min. It also gave a koff [5] of 0.00102 s⁻¹ and a kon [5] of 339000 M⁻¹ s⁻¹.

B7: H1H6782P (antibody, human IgG1, V domains shown)
VH: EVQLVESGGGLVQPGRSLRLSCAASGFTFDDYAMHWVRQAPGKGLEWVSGIIWNSGHIGYGDSVKGRFTISRDNAKKSLYLQMNSLRAEDTALYYCARDSGRYQSYFDYWGQGTLVTVSS
VL: DIQMTQSPSTLSASVGDRVTITCRASHIISSWLAWYQQKPGKAPKVLIFKASSLESGVPSRFSGSGSGTEFTLTISSLQPDDFATYYCQQYNTYSRTFGQGTKVEIK
notes: human IgG1 Fc (H1H)
For B7, the “FACS Cell Binding (Fold Above Background)” value [1] was 4 fold, the “FACS Cell Binding (Fold Above Background)” value [2] was 43 fold and the Kd [3] was 1.99 nM. For the same binder, the “T 1/2” value [3] was 15 min, the koff [3] was 0.000767 s⁻¹ and the kon [3] was 385000 M⁻¹ s⁻¹. The Kd [4] was 0.217 nM, the “T 1/2” value [4] was 89 min and the koff [4] was 0.00013 s⁻¹. The kon [4] was 598000 M⁻¹ s⁻¹, the Kd [5] was 1.28 nM and the “T 1/2” value [5] was 16 min. It also gave a koff [5] of 0.000716 s⁻¹ and a kon [5] of 557000 M⁻¹ s⁻¹.
